What is called Kd is the concentration at which binding is half-saturated. High values mean lower affinity, low ones higher affinity.

This note sets out measurements from article PMC6736635.

Targets include PRC2-AEBP2 mt2 (Homo sapiens, UniProt Q15910;Q15022;O75530;Q09028;Q6ZN18 1-746;1-739;1-441;1-425;1-517, H129A;K156A;H158A;G159A;R161A;R306A); PRC2-AEBP2 mt3 (Homo sapiens, UniProt Q15910;Q15022;O75530;Q09028;Q6ZN18 1-746;1-739;1-441;1-425;1-517, R16A;K17A;R18A;K20A); PRC2-MTF2 (Homo sapiens, UniProt Q15910;Q15022;O75530;Q09028;Q9Y483 1-746;1-739;1-441;1-425;1-593); PRC2-PHF19 (Homo sapiens, UniProt Q15910;Q15022;O75530;Q09028;Q5T6S3 1-746;1-739;1-441;1-425;1-580); PRC2-AEBP2 mt5 (Homo sapiens, UniProt Q15910;Q15022;O75530;Q09028;Q6ZN18 1-746;1-739;1-441;1-425;1-517, Y133A;T144A;F145A;Y153A;Y308A); PRC2-MTF2-EPOP (Homo sapiens, UniProt Q15910;Q15022;O75530;Q09028;Q9Y483;A6NHQ4 1-746;1-739;1-441;1-425;1-593;1-379); PRC2-AEBP2 mt1 (Homo sapiens, UniProt Q15910;Q15022;O75530;Q09028;Q6ZN18 1-746;1-739;1-441;1-425;1-517, R27A;R31A;F165A;R355A); PRC2-AEBP2 mt4 (Homo sapiens, UniProt Q15910;Q15022;O75530;Q09028;Q6ZN18 1-746;1-739;1-441;1-425;1-517, K656A).

What all share (assay): fluorescence anisotropy
The target of data set [1] is T1, PRC2-AEBP2 (Homo sapiens, UniProt Q15910;Q15022;O75530;Q09028;Q6ZN18 1-746;1-739;1-441;1-425;1-517).
The target of data set [2] is T1, PRC2-AEBP2. The source holds these as a separate data set.
Data set [3] deals with T1, PRC2-AEBP2. This is another data set of the same source.
Data set [4] deals with PRC2 core (EZH2-EED-SUZ12-RBBP4) (Homo sapiens, UniProt Q15910;Q15022;O75530;Q09028 1-746;1-739;1-441;1-425).

Where two headings read alike, the source gives them in different places.

Chain of PRC2 core (EZH2-EED-SUZ12-RBBP4) (Q15910 whole entry, chain 1 of 4): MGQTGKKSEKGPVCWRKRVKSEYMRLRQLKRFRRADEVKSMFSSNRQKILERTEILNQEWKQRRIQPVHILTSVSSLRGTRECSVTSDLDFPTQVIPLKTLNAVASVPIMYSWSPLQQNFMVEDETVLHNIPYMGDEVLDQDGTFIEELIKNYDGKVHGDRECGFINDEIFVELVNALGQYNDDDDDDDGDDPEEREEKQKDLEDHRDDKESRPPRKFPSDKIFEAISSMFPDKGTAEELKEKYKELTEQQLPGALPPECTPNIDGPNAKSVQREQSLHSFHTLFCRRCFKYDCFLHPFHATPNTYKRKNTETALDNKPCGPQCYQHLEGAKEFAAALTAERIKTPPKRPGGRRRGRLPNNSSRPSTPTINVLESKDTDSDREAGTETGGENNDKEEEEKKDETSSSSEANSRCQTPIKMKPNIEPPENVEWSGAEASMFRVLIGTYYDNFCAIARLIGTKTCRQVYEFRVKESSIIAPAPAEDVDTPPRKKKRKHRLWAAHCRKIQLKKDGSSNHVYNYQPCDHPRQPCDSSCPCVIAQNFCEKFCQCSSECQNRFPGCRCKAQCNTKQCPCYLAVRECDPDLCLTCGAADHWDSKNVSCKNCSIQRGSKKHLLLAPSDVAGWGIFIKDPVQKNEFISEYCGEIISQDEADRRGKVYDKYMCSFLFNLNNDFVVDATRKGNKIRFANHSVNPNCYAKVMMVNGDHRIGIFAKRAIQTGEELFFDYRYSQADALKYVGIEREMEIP
Chain of PRC2 core (EZH2-EED-SUZ12-RBBP4) (Q15022 whole entry, chain 2 of 4): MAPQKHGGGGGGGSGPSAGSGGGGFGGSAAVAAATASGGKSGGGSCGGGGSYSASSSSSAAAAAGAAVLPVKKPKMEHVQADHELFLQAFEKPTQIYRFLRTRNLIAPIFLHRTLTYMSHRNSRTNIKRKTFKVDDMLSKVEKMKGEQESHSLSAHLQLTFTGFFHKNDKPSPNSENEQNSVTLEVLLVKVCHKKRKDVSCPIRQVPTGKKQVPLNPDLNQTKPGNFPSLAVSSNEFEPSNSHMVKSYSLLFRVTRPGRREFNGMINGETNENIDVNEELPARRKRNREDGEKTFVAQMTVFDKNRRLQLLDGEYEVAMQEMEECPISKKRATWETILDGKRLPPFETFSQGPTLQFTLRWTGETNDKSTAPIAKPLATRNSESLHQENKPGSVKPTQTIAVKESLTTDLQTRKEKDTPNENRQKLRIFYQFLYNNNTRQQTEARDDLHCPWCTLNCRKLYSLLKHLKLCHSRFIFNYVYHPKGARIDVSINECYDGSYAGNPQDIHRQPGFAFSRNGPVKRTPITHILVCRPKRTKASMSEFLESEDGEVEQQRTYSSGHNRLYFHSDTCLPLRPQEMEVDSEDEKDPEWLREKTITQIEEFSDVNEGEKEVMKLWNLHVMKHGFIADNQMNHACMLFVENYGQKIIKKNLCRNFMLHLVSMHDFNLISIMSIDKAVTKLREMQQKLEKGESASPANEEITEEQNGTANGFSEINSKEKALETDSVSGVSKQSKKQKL
Chain of PRC2 core (EZH2-EED-SUZ12-RBBP4) (O75530 whole entry, chain 3 of 4): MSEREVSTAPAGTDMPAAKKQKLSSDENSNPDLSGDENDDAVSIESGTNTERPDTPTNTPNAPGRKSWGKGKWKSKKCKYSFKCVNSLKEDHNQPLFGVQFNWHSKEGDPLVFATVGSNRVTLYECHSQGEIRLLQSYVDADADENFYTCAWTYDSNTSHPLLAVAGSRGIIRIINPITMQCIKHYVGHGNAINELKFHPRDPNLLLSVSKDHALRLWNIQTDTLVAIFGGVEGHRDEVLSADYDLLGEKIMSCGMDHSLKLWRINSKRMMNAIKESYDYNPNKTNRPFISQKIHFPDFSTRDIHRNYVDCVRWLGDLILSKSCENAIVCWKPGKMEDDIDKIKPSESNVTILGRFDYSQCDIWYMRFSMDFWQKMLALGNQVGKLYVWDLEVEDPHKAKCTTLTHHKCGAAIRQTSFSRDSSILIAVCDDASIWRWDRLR
Chain of PRC2 core (EZH2-EED-SUZ12-RBBP4) (Q09028 whole entry, chain 4 of 4): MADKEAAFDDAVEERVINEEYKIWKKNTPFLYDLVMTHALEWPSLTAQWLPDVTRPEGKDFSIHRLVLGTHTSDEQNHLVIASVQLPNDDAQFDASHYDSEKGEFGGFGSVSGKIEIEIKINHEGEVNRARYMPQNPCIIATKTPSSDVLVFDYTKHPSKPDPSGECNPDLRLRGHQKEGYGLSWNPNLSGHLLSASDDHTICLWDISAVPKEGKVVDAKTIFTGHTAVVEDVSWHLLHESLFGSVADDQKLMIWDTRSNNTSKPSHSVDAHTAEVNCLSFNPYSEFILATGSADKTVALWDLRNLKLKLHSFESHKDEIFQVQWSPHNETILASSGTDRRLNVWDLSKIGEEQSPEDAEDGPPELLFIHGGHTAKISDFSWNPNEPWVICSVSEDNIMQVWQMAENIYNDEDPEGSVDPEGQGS

As to UUAGGGUUAGGGUUAGGGUUAGGG (structured_RNA) [G4 24 RNA], the dissociation constant Kd is 60.5 ± 2.2 nM with PRC2-AEBP2 [1]; 19.2 ± 2.7 nM in the data set with PRC2-AEBP2 [2]; 141 ± 8 nM with PRC2-AEBP2 mt2; 54.6 ± 3.8 nM in the data set with PRC2-AEBP2 [3]; 124 ± 7 nM in the data set with PRC2-AEBP2 mt3; 82.4 ± 9.8 nM with PRC2-MTF2. Further, the Kd with PRC2-PHF19 was determined as 34 ± 1.8 nM; with PRC2-AEBP2 mt5, 93.7 ± 6.3 nM; in data set [4] it was 129 ± 6 nM; with PRC2-MTF2-EPOP, 40.9 ± 3.9 nM; with PRC2-AEBP2 mt1 it was 173 ± 7 nM; with PRC2-AEBP2 mt4, 102 ± 4 nM.
